Values quoted from earlier work, collected in patent US20180296542A1, “IMINOSUGARS FOR IMPROVING BONE MINERAL DENSITY IN BONE DISEASE” (Saint Louis University, priority 2015, published 2018).

Tested on: Akp2^−/− mice
Conditions: cited from earlier work

B1: untagged, native human TNSALP: untagged, native human tissue nonspecific alkaline phosphatase used for ERT in Akp2−/− mice (protein, UniProt P05186 18-501, looked up)
Alkaline phosphatase, …: LVPEKEKDPKYWRDQAQETLKYALELQKLNTNVAKNVIMFLGDGMGVSTVTAARILKGQLHHNPGEETRLEMDKFPFVALSKTYNTNAQVPDSAGTATAYLCGVKANEGTVGVSAATERSRCNTTQGNEVTSILRWAKDAGKSVGIVTTTRVNHATPSAAYAHSADRDWYSDNEMPPEALSQGCKDIAYQLMHNIRDIDVIMGGGRKYMYPKNKTDVEYESDEKARGTRLDGLDLVDTWKSFKPRYKHSHFIWNRTELLTLDPHNVDYLLGLFEPGDMQYELNRNNVTDPSLSEMVVVAIQILRKNPKGFFLLVEGGRIDHGHHEGKAKQALHEAVEMDRAIGQAGSLTSSEDTLTVVTADHSHVFTFGGYTPRGNSIFGLAPMLSDTDKKPFTAILYGNGPGYKVVGGERENVSMVDYAHNNYQAQSAVPLRHETHGGEDVAVFSKGPMAHLLHGVHEQNYVPHVMAYAACIGANLGHCAPAS
Bone findings after 6 months (after 6 months): hypomineralization and abnormal proliferative chondrocytes presented | Growth and fertility compared to untreated knock-out animals: better growth and normal fertility | Length of life compared to untreated knock-out animals: longer lives
